Experiments:
[1] = test system: factor VIII expressed by F8-BDD-N8
[2] = test system: factor VIII expressed by F8-BDD (normal unmodified B-domain-deleted F8)
[3] = test system: factor VIII expressed by F8-BDD-299

Thrombin (FIIa)
activity of factor VIII after thrombin was added (substrate luminescence assay, every two minutes) [1]: the activity of factor VIII expressed by F8-BDD and F8-BDD-N8 is slightly increased | activity of factor VIII after thrombin was added (substrate luminescence assay, every two minutes) [2]: the activity of factor VIII expressed by F8-BDD and F8-BDD-N8 is slightly increased | activity of factor VIII after thrombin was added (substrate luminescence assay, every two minutes) [3]: From the second minute, the activity of factor VIII expressed by F8-BDD-299 is significantly increased
